The experiment has as its target T1, epidermal growth factor receptor (EGFR) (human, UniProt P00533 25-1210).
T1 construct: Endogenous protein in A431 cell lysate; also called EGF receptor
Briefly: Co-AP with EGFR aptamer-magnetic agarose beads from EGF-stimulated A431 cell lysate, Western blot.

Procedure: In order to study additional DxSO₄ effects in Co-AP assays, Co-AP experiments were performed with various DxSO₄ concentrations in a binding buffer. […] The mixed solution was washed four times with a lysis buffer. The bound complex was eluted by 20 mM EDTA in 40 mM HEPES containing 0.1M NaCl.

B1: PDK1 (enzyme, human, UniProt O15530 1-556, looked up)
chain: MARTTSQLYDAVPIQSSVVLCSCPSPSMVRTQTESSTPPGIPGGSRQGPAMDGTAAEPRPGAGSLQHAQPPPQPRKKRPEDFKFGKILGEGSFSTVVLARELATSREYAIKILEKRHIIKENKVPYVTRERDVMSRLDHPFFVKLYFTFQDDEKLYFGLSYAKNGELLKYIRKIGSFDETCTRFYTAEIVSALEYLHGKGIIHRDLKPENILLNEDMHIQITDFGTAKVLSPESKQARANSFVGTAQYVSPELLTEKSACKSSDLWALGCIIYQLVAGLPPFRAGNEYLIFQKIIKLEYDFPEKFFPKARDLVEKLLVLDATKRLGCEEMEGYGPLKAHPFFESVTWENLHQQTPPKLTAYLPAMSEDDEDCYGNYDNLLSQFGCMQVSSSSSSHSLSASDTGLPQRSGSNIEQYIHDLDSNSFELDLQFSEDEKRLLLEKQAGGNPWHQFVENNLILKMGPVDKRKGLFARRRQLLLTEGPHLYYVDPVNKVLKGEIPWSQELRPEAKNFKTFFVHTPNRTYYLMDPSGNAHKWCRKIQEVWRQRYQSHPDAAVQ
notes: also called phosphoinositide dependent kinase 1; PDPK1
With B1, the binding result was “binds”.

For the origin of these results see patent US20130059292A1 (APTAMER SCIENCES, published 2013).
